Assay [1] addresses HIV-1 AD8 Env ΔN139INN/K601N (HIV-1 (AD8 strain)). As to the kind of experiment: cell-based or functional assay.
Assay [2] addresses HIV-1 AD8 envelope glycoprotein (Env), wild type (HIV-1 (AD8 strain)). The experiment in a line: cell-based or functional assay.
Assay [3] deals with HIV-1 AD8 gp120 T138N (HIV-1 (AD8 strain)). As to the kind of experiment: 35S pulse-chase labelling, immunoprecipitation, gp120-shedding index.
Assay [4] has as its target HIV-1 AD8 gp120, wild type (HIV-1 (AD8 strain)). Described as above.
The next assay has as its system HIV-1. Particulars: monotherapy, HIV-1 infected individuals; cited from earlier work.
For the next assay, the system named is HIV-1AD8 WL/KH/DE virus. As to the kind of experiment: Neutralization assay in TZM-bl cells, WL/KH/DE virus. In kind it is cell-based.
The test system of the next assay is HIV-1AD8 WL/KH virus. As to the kind of experiment: Neutralization assay in TZM-bl cells, WL/KH virus. The assay is classed as cell-based.

C34 fusion inhibitor peptide: the IC50, inhibition of Env-mediated cell-cell fusion by C34 (luciferase) in assay [1] and in assay [2] was 100 nM each time. HIV-1 AD8 gp41 K601D: the improvement of gp120-gp41 association, fold with respect to K601D in assay [3] was found to be 2 fold. For the same substance, in assay [4], the gp120 shedding into culture supernatant, fold with respect to WT was 6.8 fold. In turn, HIV-1 AD8 gp41 K601N registered a gp120 shedding into culture supernatant, fold with respect to WT in assay [4] of 4.4 fold. On to “Ibalizumab: αCD4bs antibody used as monotherapy of HIV-1 infected individuals”, for which the viral load result in the assay with HIV-1 was “transient drop in viral load to nadir levels followed by a rebound in viral titre”.

With maraviroc, the “neutralization compared to the WT” value in the assay with HIV-1AD8 WL/KH/DE virus and with HIV-1AD8 WL/KH virus was “to similar extents” throughout.
